Results: patent US20260062488A1 (AbbVie / Abbott, published 2026)

Legend:
[1] = target: T1, human FcγRI extracellular domain protein (human, UniProt P12314 16-292); test: SPR (Biacore), N = 1
T1 construct: extracellular domain; also called hFcγRI

[2] = target: T2, human FcγRIIa (H131) extracellular domain protein (human, UniProt P12318 34-217); test: SPR (Biacore), N = 1
T2 construct: extracellular domain; also called hFcγRIIa (H131); FcγRIIa 131H
T2 sequence (looked up): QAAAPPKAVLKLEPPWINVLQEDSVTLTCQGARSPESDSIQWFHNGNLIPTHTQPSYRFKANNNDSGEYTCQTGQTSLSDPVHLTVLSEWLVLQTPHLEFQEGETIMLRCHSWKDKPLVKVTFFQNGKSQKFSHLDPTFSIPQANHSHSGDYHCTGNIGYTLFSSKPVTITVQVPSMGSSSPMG

[3] = target: T3, human FcγRIIb extracellular domain protein (human, UniProt P31994 43-217); test: SPR (Biacore), N = 1
T3 construct: extracellular domain; also called hFcγRIIb
T3 sequence (looked up): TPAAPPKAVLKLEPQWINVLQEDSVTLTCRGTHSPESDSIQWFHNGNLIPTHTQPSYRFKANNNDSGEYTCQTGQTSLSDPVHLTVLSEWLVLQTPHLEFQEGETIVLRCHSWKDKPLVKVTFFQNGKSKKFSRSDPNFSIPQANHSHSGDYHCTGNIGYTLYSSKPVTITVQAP

[4] = target: T4, human FcγRIIIa (F158) extracellular domain protein (human, UniProt P08637 17-208); test: SPR (Biacore), N = 1
T4 construct: extracellular domain; also called hFcγRIIIa (F158); FcγRIIIa158F

[5] = target: T5, cynomolgus FcγRI extracellular domain protein (cynomolgus monkey); test: SPR (Biacore), N = 1
T5 construct: extracellular domain; also called Cyno FcγRI

[6] = target: T6, cynomolgus FcγRIIa extracellular domain protein (cynomolgus monkey); test: SPR (Biacore), N = 1
T6 construct: extracellular domain; also called Cyno FcγRIIa

[7] = target: T7, cynomolgus FcγRIIb extracellular domain protein (cynomolgus monkey); test: SPR (Biacore), N = 1
T7 construct: extracellular domain; also called Cyno FcγRIIb

[8] = target: T8, cynomolgus FcγRIII extracellular domain protein (cynomolgus monkey, UniProt Q8SPW2 17-208); test: SPR (Biacore), N = 1
T8 construct: extracellular domain; also called Cyno FcγRIII

[9] = target: T9, cynomolgus α4β7 integrin (cynomolgus monkey); test: FACS, cyno CD8+ total
T9 construct: whole, on cells; On CHOK1-cα4β7 cells or cynomolgus blood lymphocytes; also called cα4β7; cyno α4β7

[10] = target: T9, cynomolgus α4β7 integrin; test: FACS, cyno CD4+ naïve
[11] = target: T9, cynomolgus α4β7 integrin; test: FACS, cyno CD4+ total
[12] = target: T9, cynomolgus α4β7 integrin; test: FACS, cyno CD8+ memory
[13] = target: T9, cynomolgus α4β7 integrin; test: FACS, cyno total CD4+ T cells
[14] = target: T9, cynomolgus α4β7 integrin; test: FACS, cyno total CD8+ T cells
[15] = target: T9, cynomolgus α4β7 integrin; test: binding to cyno CD4+ Tm cells
[16] = target: T5, cynomolgus FcγRI extracellular domain …; test: SPR (Biacore T200), FcγR captured, antibody injected
[17] = target: T8, cynomolgus FcγRIII extracellular domain …; test: as above
[18] = target: T10, human α4β1 integrin (human, UniProt P05556 21-798); test: FACS on recombinant cells expressing human α4β1; N=1
T10 construct: whole, on cells; also called hα4β1

[19] = target: T1, human FcγRI extracellular domain protein; test: SPR (Biacore T200), His-tagged FcγR captured by anti-His, antibody injected
[20] = target: T2, human FcγRIIa (H131) extracellular …; test: as above
[21] = target: T4, human FcγRIIIa (F158) extracellular …; test: as above
[22] = target: T11, human FcγRIIIa (V158) extracellular domain protein (human, UniProt P08637 17-208); test: as above
T11 construct: extracellular domain; also called hFcγRIIIa (V158); FcγRIIIa158V

[23] = target: T12, human FcγRIIc on CHO-K1 cells (human, UniProt P31995 43-323); test: flow cytometry on CHO-K1 cells expressing the receptor (curve FcgRIIC), monomeric antibody, F(ab')2 anti-human IgG AF647; N=1
T12 construct: whole, on cells
T12 sequence (looked up): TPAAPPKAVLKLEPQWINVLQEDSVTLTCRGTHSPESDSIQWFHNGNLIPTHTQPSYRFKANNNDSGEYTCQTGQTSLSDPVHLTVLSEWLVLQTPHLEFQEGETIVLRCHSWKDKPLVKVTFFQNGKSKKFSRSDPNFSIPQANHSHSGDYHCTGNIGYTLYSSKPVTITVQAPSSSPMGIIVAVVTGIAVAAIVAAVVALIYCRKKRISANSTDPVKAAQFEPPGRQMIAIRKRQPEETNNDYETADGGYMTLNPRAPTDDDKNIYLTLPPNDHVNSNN

[24] = target: T13, FcgRIIIB SH (human, UniProt O75015); test: flow cytometry on CHO-K1 cells expressing the receptor (curve FcgRIIIB SH), monomeric antibody, F(ab')2 anti-human IgG AF647; N=1
T13 construct: cell surface, on engineered CHO-K1 cells; the list of molecules has only an FcγRIIIb on CHO-K1 cells without the allotype; also called human FcγRIIIb (SH) on CHO-K1 cells
T13 sequence (O75015 17-200 N65S/A78D limits assumed): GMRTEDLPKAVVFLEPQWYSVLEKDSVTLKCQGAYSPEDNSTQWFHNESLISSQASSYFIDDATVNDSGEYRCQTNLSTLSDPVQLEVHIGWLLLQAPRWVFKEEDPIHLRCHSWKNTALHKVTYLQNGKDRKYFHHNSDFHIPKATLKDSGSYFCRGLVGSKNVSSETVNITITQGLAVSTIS

T8 sequence (Q8SPW2 17-208): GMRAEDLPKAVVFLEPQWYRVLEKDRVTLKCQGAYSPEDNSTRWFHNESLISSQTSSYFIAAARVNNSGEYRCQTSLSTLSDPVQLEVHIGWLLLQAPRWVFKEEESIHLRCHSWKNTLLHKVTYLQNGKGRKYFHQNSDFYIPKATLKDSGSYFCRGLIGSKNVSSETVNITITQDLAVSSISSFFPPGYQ
T1 sequence (P12314 16-292): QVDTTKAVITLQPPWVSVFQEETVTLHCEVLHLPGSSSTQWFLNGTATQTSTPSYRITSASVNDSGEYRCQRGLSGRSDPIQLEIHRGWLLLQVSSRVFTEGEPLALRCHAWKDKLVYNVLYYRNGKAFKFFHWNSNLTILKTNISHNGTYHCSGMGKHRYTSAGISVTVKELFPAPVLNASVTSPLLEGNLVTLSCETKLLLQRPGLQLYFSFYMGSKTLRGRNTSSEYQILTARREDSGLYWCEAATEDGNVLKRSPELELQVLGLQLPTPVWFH
T4 sequence (P08637 17-208): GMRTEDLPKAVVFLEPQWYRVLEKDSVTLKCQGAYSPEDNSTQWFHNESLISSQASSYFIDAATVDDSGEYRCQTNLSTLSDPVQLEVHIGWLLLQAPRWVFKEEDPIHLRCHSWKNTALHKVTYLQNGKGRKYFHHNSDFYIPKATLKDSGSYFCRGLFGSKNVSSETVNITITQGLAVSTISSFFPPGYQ
T11 sequence (P08637 17-208 F176V limits assumed): as the sequence (P08637 17-208) above, with F160V counted along it

B1: Ab-h1.9d-WT (antibody, human IgG1, kappa)
heavy: not shown
light: DIQMTQSPSSLSASVGDRVTITCHASQDISDNIGWLQQKPGKSFKLLIYHGTNLEDGVPSRFSGSGSGTDYTLTISSLQPEDFATYYCVQYAQFPWTFGGGTKVEIKRTVAAPSVFIFPPSDEQLKSGTASVVCLLNNFYPREAKVQWKVDNALQSGNSQESVTEQDSKDSTYSLSSTLTLSKADYEKHKVYACEVTHQGLSSPVTKSFNRGEC
notes: IgG1/kappa with D356E and L358M (EU); also called Anti-human α4β7 (AC-166667) hu IgG1/k WT mAb
With B1 the Kd [1] was 7 nM, the Kd [2] was 4000 nM and the Kd [3] was 12000 nM. The Kd [4] was 3100 nM, the Kd [5] was 1.4 nM and the Kd [6] was 8200 nM. For the same binder, the Kd [7] was 7100 nM, the Kd [8] was 160 nM and the EC50 [9] was 0.035 nM. For the same binder, the EC50 [10] was 0.045 nM, the EC50 [11] was 0.03 nM and the EC50 [12] was 0.036 nM. It also gave an EC50 [13] of 0.03 nM, an EC50 [14] of 0.035 nM and an EC50 [15] of 0.01 nM. For the same binder, the Kd [16] was 12 nM, the Kd [17] was 280 nM and the binding result [18] was “no binding (tested: about 70 (axis without unit))”. It also gave a Kd [19] of 16 nM, a Kd [20] of 5600 nM and a Kd [21] of 4600 nM. The Kd [22] was 480 nM, the binding result [23] was “binds” and the binding result [24] was “binds”.
